Measured values published in US20030013634A1, “Synthesis of small particles” (priority 2000, published 2003).

What was measured:
[1] = Median particle size by laser diffraction; assay type: physicochemical; conditions: for median particle size: laser diffraction, agglomerated insulin powder, Example 5
Source text: These fine insulin particles may aggregate to form larger particles due to intermolecular interaction between the molecules. […] Insulin precipitated as nano-sized particles, was also agglomerated to micron-sized particles.

[2] = Aerosol characterisation by impaction (Marple-Miller / Cascade Impactor); assay type: physicochemical
Protocol: In order to determine the aerosol performance of the protein particles, in vitro testing of the particles was assessed using a 5 stage Marple-Miller Impactor (Model 160, MSP Corporation, USA) with cut-off diameters of […]. The Marple-Miller impactor consisted of a stainless steel inlet throat, five impaction stages and an integral filter stage. The stages were previously coated with propylene glycol/methanol (50:50) to prevent particle bounce, thus minimising the probability of carry over of coarse particles onto lower stages.
A mass of 10-20 mg of insulin was weighed into a gelatin capsule (size 3, Park Davis, Australia) and was immediately dispersed by a powder inhaler device, Dinkihaler (Aventis, Frankfurt, Germany) into the Marple Miller Impactor at 60 L/min using a vacuum source (ERWEKA GMBH, Germany).
The fraction of the protein recovered in each stage was calculated by measuring the absorbance of the protein solution against the absorbance of a standard 1% solution of insulin.

[3] = Biochemical integrity by size exclusion chromatography (monomer content); assay type: physicochemical; conditions: for biological activity as indicated by the in vitro test for monomer content: after processing with the anti-solvent
Protocol: A protein-Pak 125 column (Waters, USA) was used for insulin. The mobile phase consisted of 50 mM sodium phosphate buffer at pH 3 with 300 mM sodium chloride. The powder samples were dissolved to prepare 1 mg/mL solution in deionised water by gentle shaking for 10 minutes to have complete dissolution. The supernatant was filtered through […] membrane filter and then injected into the HPLC column. […] The software Millennium 3.5 was used in the quantification of the monomer content.

[4] = Insulin deamidation testing by reverse phase HPLC; assay type: physicochemical; conditions: 2 mg/mL, after particle formation
Protocol: In order to determine the percentage of insulin that was deamidated by the process, a test of the insulin was performed using high performance liquid chromatography (HPLC). A reverse phase column (Symmetry® C18, 5 μm packing, 4.6 mm×150 mm) was used to separate the deamidated from the non-deamidated insulin. The gradient method was used with eluents 0.1% trifluoroacetic acid/acetonitrile 26% to 33% and the flow rate of 1 mL/min. The absorbance was monitored at 280 nm.
The percentage of deamido insulin was determined by comparing the peak area of the degradation product to the area of standard insulin containing the same concentration of insulin (2 mg/mL).

[5] = Particle size and morphology by SEM; assay type: physicochemical
Source text: These fine insulin particles may aggregate to form larger particles due to intermolecular interaction between the molecules.

[6] = values reported in the literature; cited from earlier work

CO2-ethanol: Insulin particles precipitated using carbon dioxide modified with 20 mol % ethanol as anti-solvent (comparison)
D(0.5, V) median particle size based on volume ([1]; 2-stage process): 8.2 +/− 0.6
D(0.5, V) median particle size based on volume ([1]; single stage production unit): 11.8 +/− 1.6
FPM (%) fine particle mass, mass fraction of particles below 5 μm ([2]; 2-stage process): 21.9%
biological activity as indicated by the in vitro test for monomer content [3]: significant deactivation

Ethane-ethanol
D(0.5, V) median particle size based on volume ([1]; 2-stage process): 4.8 +/− 0.4
D(0.5, V) median particle size based on volume ([1]; single stage production unit): 12.8 +/− 1.0
FPM (%) fine particle mass, mass fraction of particles below 5 μm ([2]; 2-stage process): 43.5%
increase in the amount of material less than 5 μm aerodynamic diameter ([2]; 2-stage versus single stage process): 100%
fraction of particles with a size >10 μm ([2]; aerodynamic particle size distribution, FIG. 4): around 45%
FPM (%) fine particle mass, mass fraction of particles below 5 μm ([2]; single stage production unit): 20.0%
biological activity as indicated by the in vitro test for monomer content [3]: retention of biological activity

insulin: Low endotoxin bovine insulin (Sigma), precipitated as fine particles from aqueous solution by the ASES process
median particle size [1]: 5 μm
median particle size ([1]; listed as Insulin): about 5 μm
FPM (%) fine particle mass, mass fraction of particles below 5 μm ([2]; 2-stage process): 45%
fine particle fraction (% <5 μm) ([2]; Marple Miller Impactor, Dinkihaler, 60 L/min): at least 42%
FPM (%) fine particle mass, mass fraction of particles below 5 μm ([2]; single stage production unit): 20%
monomer content ([3]; 1 mg/mL in deionised water, after particle formation): 99.5%
percentage of deamido insulin [4]: 3.0%
size of nano-sized particles ([5]; modified dual vessel apparatus (FIG. 10b)): 50-500 nm
size of nano-sized particles ([5]; single-stage apparatus (FIG. 9b)): 50-500 nm
maximum FPM obtained by other methods [6]: ≤ 10%
